Test system: MS2 coat protein
Assay: apparent KD of MS2 coat protein; designed switch direction (-1 OFF switch, 1 ON switch): 1; higher = weaker reporter binding
Summary of the method: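 Designed RNA switches with common flanks were transcribed on Illumina chips by stalled E. coli RNA polymerase and titrated with SNAP-549-labelled MS2 coat protein, from 0.7 or 1.5 nM doubling to 3 µM, in Tris-HCl pH 7.5 buffer with KCl, MgCl2, BSA, DTT, tRNA and Tween-20. Steps lasted 0.8–1.5 h (lowest) to 10–20 min (highest). Titrations ran without input, with 200 uM small-molecule ligand, or with an oligonucleotide input. Normalised cluster fluorescence was curve-fitted, and apparent KD is the per-design median over clusters.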

[1] = input ligand: microRNA oligo, concentration not stated
[2] = Eterna round: R95, input ligand: microRNA oligo, concentration not stated
[3] = Eterna round: R95, input ligand: FMN 200 uM
[4] = Eterna round: R95, input ligand: none

Sequence	apparent KD of MS2 coat protein (input ligand: FMN 200 uM) [nM]	apparent KD of MS2 coat protein [1] [nM]	apparent KD of MS2 coat protein (input ligand: none) [nM]	apparent KD of MS2 coat protein [2] [nM]	apparent KD of MS2 coat protein [3] [nM]	apparent KD of MS2 coat protein [4] [nM]
CUGAGCAAUCAAGGAUAUCACGUCGUUUAGACGUGAGAAGGUGAUCAUAACAUGAGGAUCACCCAUGUAUUACAUGAAGCUCAG [SSNG1/1-A3] (Eterna round: R96, puzzle: Same State NG 1)	767	363	919			
CUGAGCAAGCAAGGAUAUCACGUCGAAUAGACGUGAGAAGGUGCUCCUUACAUGAGGAUCACCCAUGUAUAACAUGAAGCUCAG [SSNG1/10-A1] (Eterna round: R96, puzzle: Same State NG 1)	254	869	1260			
GCUCGAAUCACAGCCAACAUGAGGAUCACCCAUGUGUGUUGGUAGGAUAUCGUUUCUAAGGGAAACGAGAAGGGCCGAACGAGC [SameState NG3 #9] (Eterna round: R96, puzzle: Same State NG 3)	31.5	39.2	52.1			
CUCAAACAUGAGGAUCACCCAUGUGUUGUCAUGGGAGGAUAUCUAAGUUCGUUGUAGUCGGGAGAAGGCCUAUGUC [× ×•×ª×• ×ž×“×™× ×” × ×—×ª-11] (puzzle: Same State 1)				182		
ACGUGAGGCGCAGGAUAUACAUGAGGAUCACCCGUAGAAGGGCGCACCCAUAACAUGAGGAUCACCCAUGUUGUCCAUGUCCAU [Same State NG 1 S5] (Eterna round: R96, puzzle: Same State NG 1)	226	158	241			
UCUUGGUUUUUGCUCGUUUUUUGUGUUGAACAUGAGGAUCACCCAUGUAUUGUACGAUCCGGUUUAGUGAUGGUCCG [JMF 63] (puzzle: Sensor for hsa-mir-208a)				27.7	40.8	42.1
AGUCCAGCCUGAGCUGGACAAAAGCAUGUACAUGAGGAUCACCCAUGUCAUGUACAAGCUUUUUGCUCGUCUUAAUA [JL zipper 49] (Eterna round: R96, puzzle: Sensor for hsa-mir-208a)	600	16.2	471			
UUCUUACAUGAGGAUCACCCAUGUGUUGUCGUGGGAGGAUAUCCUUGUUCGGUGGCGUUGGGAGAAGGCCUAUGUU [× ×•×ª×• ×ž×“×™× ×” × ×—×ª-20] (puzzle: Same State 1)				40.4		
CUCUUACAUGAGGAUCACCCAUGUGUUGUCGUGGGAGGAUAUCCUGGUUCGGUGGCGUUGGGAGAAGGCCUAUGUC [× ×•×ª×• ×ž×“×™× ×” × ×—×ª-18] (puzzle: Same State 1)				378		
GGACGUCAAUAUGAAUUCCACAUGAGGAUCACCCAUGUUCAUGAGGAUAUGGAUCCUAAUUGGAUCCAGAAGGCAUGGACGUCC [Fiskers NG3ss - 38] (Eterna round: R96, puzzle: Same State NG 3)	81.9	163	194			
UGUUGUAUUACAGGAUAUCUAUUAUUUUUUUUUAGAGAAGGGUAUUCACAUGAGGAUCACCCAUGUAUAUACGAGGAAGUUGUG [JMF's solution 23] (Eterna round: R96, puzzle: Same State NG 1)		45.5				
CCGAUCUACCGAAAGGUAGAUGGGCUUGUACAUGAGGAUCACCCAUGUCAGUACAAGCUUUUUGCUCCUCUUAUCCU [salish99-hsa-208a-40] (Eterna round: R96, puzzle: Sensor for hsa-mir-208a)	41.8	14	42.7			
CUGAGCGAUCAAGGAUAUCACGUCGUUUAGACGUGAGAAGGUGAUAAUUACAUGAGGAUCACCCAUGUAUAACAUGAAGCUCAG [SSNG1/9-A3] (Eterna round: R96, puzzle: Same State NG 1)	14	16.4	21			
GCUCGGCUGAUGGCCUACAUGAGGAUCACCCAUGUGAGUGGGCAGGAUAUCUAGAUUCAGGAUGUAGAGAAGGGCCUGCCGAGC [SameState NG3 #39] (Eterna round: R96, puzzle: Same State NG 3)	1500	331	1190			
AUGAAGAAUUAAGGAUAUUGAAUACAUAUGUUUAACAUGAGGAUCACCCAUGUGGGUUGCGGUAUCGAGAAGGUAAAUUAAUAG [Mat - same State NG 2 - JL mod - D90] (Eterna round: R96, puzzle: Same State NG 2)	142	156	143			
UCAAGCGAGAGGCUCGUCUUAUGUUUGGUACAUGAGGAUCACCCAUGUUAGGGACGAUUUAGUUAGAUGGAAUGGAG [JR_SHM208A_Sub034] (puzzle: Sensor for hsa-mir-208a)				148	57.3	69.6
GGUAUUAACACAGGAUAUGCUUACGAAACGUAAGCAGAAGGGUGAACAUGAGGAUCACCCAUGUAUGUACCAGGGCGUGAGCCC [JL SSNG1 1.73] (Eterna round: R96, puzzle: Same State NG 1)	137	510	1040			
ACAUGAGACUCAGGAUAUGUUGUACCUACAUGUGACAUGAGGAUCACCCAUGUGGUAAGUAUGAUACAGAAGGGAGAGAUAUGU [Equivalance 65 - Jieux - Same State NG 2] (Eterna round: R96, puzzle: Same State NG 2)	20.5	22.1	43.6			
GGAGCCAAGGCAGGAUAUUCAUAUUAAUUACAUGAGGAUCACCCAUGUUAGGCCAGAAGGCCUUGGGAGAAGGGCCAUGGCUCG [Xeonanis - 13 mod19] (Eterna round: R96, puzzle: Same State NG 2)	22.9	47.2	60.6			
GAGUGGAGGUAAGGAUAUACAAUGAUAAUCACAGUAGAAGGUACUAACAUGAGGAUCACCCAUGUAGGACUAUACCAGAGAGGG [Parity 39 - Jieux - Same State NG 1] (Eterna round: R96, puzzle: Same State NG 1)		13				
ACAAGCUUUUCUGCAUUGAAAGGUGGGAUACAUGAGGAUCACCCAUGUUUUUAUGAAAAUAAUGCUCCUCGUCUUAU [JR_SHM208A_Sub092] (puzzle: Sensor for hsa-mir-208a)				50.3	214	243
GCGGUAACUCACAUGAGGAUCACCCAUGUUCCGGAAACGGCACAGGAUAUCUGUCCGAAAAGGUCAGAGAAGGGUGAAAUCCGC [Fiskers NG3ss - 91] (Eterna round: R96, puzzle: Same State NG 3)	641	290	115			
GGUCCAUCAUGAGGAUAUGGCACCUUAUUGGUGCCAGAAGGCAUGUCUAUAGACAUGAGGAUCACCCAUGUUAUAAAUUGGACC [Eli NG1ss - 92] (Eterna round: R96, puzzle: Same State NG 1)	20	98.6	111			
AUUGCUUUCGCAGGAUAUGAUGCGAAAAUUGCGUCAGAAGGGUGGAGUAUCUCAUUGCAAGAGGACAUGAGGAUCACCCAUGUC [SameState NG1 #87] (Eterna round: R96, puzzle: Same State NG 1)	40.5	140	216			
UUAUCUCAGACAUGAGGAUCACCCAUGUUUUUUUGUCUUUGACAGGAUAUAGUUGUUUCGUUUUACUAGAAGGGUCAUUUUAUU [JR_SSNG3_Sub024] (Eterna round: R96, puzzle: Same State NG 3)	20.3	20.8	29.8			
AACAUGAGGAUCACCCAUGUCAGGUCGCCAACCUACAUGAGGAAGGAUAUAGCCUCGAAUAUUGGCUAGAAGGUCCUCAUGAAU [Tieson] (Eterna round: R96, puzzle: Same State NG 3)	320	16.4	39.9			
GAAUUUGAACUACAGGAUAUAUAGCAGAUGACAUGAGGAUCACCCAUGUAAGAGAAAGGAGGGAAAUAGAAGGGUAUGGGAGGUG [JR_SS2_Sub034] (puzzle: Same State 2)				32.9	34.5	37.7
UUAAUGAAGUAAGGAUAUACAUGAGGAAUUCUCGUAGAAGGUACUAUACAUGAGGAUCACCCAUGUGCCGGUCAGAAGACUGGA [Mat - Same State NG 1 - JL mod - D11] (Eterna round: R96, puzzle: Same State NG 1)	454	302	415			

— the supplement of paper PMC9170038
